# B1: nattokinase: naturally occurring proteolytic enzyme derived from natto, soybeans fermented with Bacillus subtilis natto (protein, UniProt P35835 107-381, looked up)
# Subtilisin NAT: AQSVPYGISQIKAPALHSQGYTGSNVKVAVIDSGIDSSHPDLNVRGGASFVPSETNPYQDGSSHGTHVAGTIAALNNSIGVLGVAPSASLYAVKVLDSTGSGQYSWIINGIEWAISNNMDVINMSLGGPTGSTALKTVVDKAVSSGIVVAAAAGNEGSSGSTSTVGYPAKYPSTIAVGAVNSSNQRASFSSVGSELDVMAPGVSIQSTLPGGTYGAYNGTSMATPHVAGAAALILSKHPTWTNAQVRDRLESTATYLGNSFYYGKGLINVQAAAQ
# Experiments:
# [1] = system: thrombus or embolus in cats with ATE; conditions: cited from earlier work
# [2] = system: thrombus or embolus in cats; conditions: cited from earlier work
# [3] = system: fibrinolytic activity in the plasma; assay: oral administration of nattokinase: fibrinolytic activity in the plasma; assay type: in vivo
# From the text: There are no known studies that examine the efficacy of nattokinase as a thrombolytic agent in cats.
# [4] = purified form; cited from earlier work
# [5] = system: artificially induced thrombosis; conditions: dogs, capsules orally; cited from earlier work
# [6] = in vivo
# Protocol: To ensure the efficacy of these two thrombolytic agents, an enteric coating is appropriate for some orally administered embodiments. The enteric coating allows the nattokinase and rutin bioflavonoid to travel through the acidic environment of the stomach without being dissolved. Nattokinase and rutin can then be absorbed into the bloodstream or circulation via the small intestine. Once absorbed, nattokinase remains active in the bloodstream for approximately 12 hours. In one embodiment, the enteric coating is composed of methacrylic acid copolymer and triethyl citrate. Additional ingredients may include, for example, arabinoglactan, microcrystalline cellulose, maltodextrin, stearic acid, croscarmellose sodium, silicon dioxide. During this clinical trial, participants were not on any other thrombolytic or fibrinolytic (blood thinning) agents.
# blood clots = assay: thrombolytic activity of the single agents, inventor's private research study; assay type: in vivo; conditions: single agent
# From the text: However, both agents can be dissolved in stomach acids, rendering certain dosage forms nearly useless as thrombolytic agents. This may explain why the potency of previous oral thrombolytics is decreased in comparison to injected thrombolytic agents. Enteric coatings reduce the active ingredients' rate of digestion in stomach acids, leading to enhanced efficacy of the active ingredient(s).
molecule,measurement,setting,value
streptokinase: veterinary drug with the potential to dissolve a thrombus or embolus,cats with pulses restored,[1]; fraction of 46 cats,about half
same,cats with motor function returned to their limbs,[1]; within 24 hours,30%
"tPA: tissue-plasminogen activator, veterinary drug with the potential to dissolve a thrombus or embolus",fatal complications due to metabolic acidosis and hyperkalemia,[2]; cats with ATE,70%
same,cats with perfusion restored to their limbs,[2]; fraction of cats given the drug,about two-thirds
B1,fibrinolytic activity in the plasma and production of tissue plasminogen activator,[3],mild and frequent enhancement
same,optimum pH of enzyme,[4],7
same,optimum temperature of enzyme,[4],37 °C
same,lysis of the thrombi by angiography,[5],lysis of the thrombi was observed
same,time active in the bloodstream,[6],approximately 12 hours
same,thrombolytic activity,blood clots,demonstrated thrombolytic activity
